Measured values taken from article PMC9482650, “Quantitative fragmentomics allow affinity mapping of interactomes” (Nature Communications, 2022).
Where a chain is given by its changes, count along the chain named.

T1: FRMPD1, Q5SYB0
T1 sequence (Q5SYB0 52-145, limits assumed, looked up): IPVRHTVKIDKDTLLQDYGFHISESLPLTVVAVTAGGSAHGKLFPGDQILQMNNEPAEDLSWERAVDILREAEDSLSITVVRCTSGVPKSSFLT

T2: APBA1_2, Q02410
T2 sequence (Q02410 742-832, limits assumed, looked up): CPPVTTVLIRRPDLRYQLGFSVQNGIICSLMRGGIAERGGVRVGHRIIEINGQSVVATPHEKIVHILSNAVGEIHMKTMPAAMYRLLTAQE

T3: APBA3_1, O96018
T3 sequence (O96018 389-490, limits assumed, looked up): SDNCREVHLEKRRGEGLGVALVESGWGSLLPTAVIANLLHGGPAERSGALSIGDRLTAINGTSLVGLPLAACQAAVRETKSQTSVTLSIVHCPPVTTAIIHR

T4: PDZD7_3, Q9H5P4
T4 sequence (Q9H5P4 857-944, limits assumed, looked up): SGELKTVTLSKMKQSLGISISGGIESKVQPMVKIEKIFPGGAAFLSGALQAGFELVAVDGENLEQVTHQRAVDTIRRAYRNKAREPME

T5: APBA2_2, Q99767
T5 sequence (Q99767 654-744, limits assumed, looked up): T2 sequence (Q02410 742-832, limits assumed, looked up) with R10K, R15K, P59A, H65Q, I66A, A70S, Y84F, A89G

T6: HTRA4, P83105
T6 sequence (P83105 378-476, limits assumed, looked up): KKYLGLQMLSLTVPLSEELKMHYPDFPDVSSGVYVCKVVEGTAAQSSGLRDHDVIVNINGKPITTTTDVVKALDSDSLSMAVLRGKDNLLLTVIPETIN

T7: MPDZ_10, O75970
T7 sequence (O75970 1624-1722, limits assumed, looked up): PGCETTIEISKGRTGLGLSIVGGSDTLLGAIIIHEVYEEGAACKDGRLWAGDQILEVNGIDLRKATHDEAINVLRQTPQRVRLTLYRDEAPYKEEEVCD

T8: NHERF3_4, Q5T2W1
T8 sequence (Q5T2W1 373-468, limits assumed, looked up): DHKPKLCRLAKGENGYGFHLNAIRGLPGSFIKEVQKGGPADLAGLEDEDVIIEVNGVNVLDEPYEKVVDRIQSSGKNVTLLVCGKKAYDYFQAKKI

T9: SYNJ2BP, P57105
T9 sequence (P57105 8-110, limits assumed, looked up): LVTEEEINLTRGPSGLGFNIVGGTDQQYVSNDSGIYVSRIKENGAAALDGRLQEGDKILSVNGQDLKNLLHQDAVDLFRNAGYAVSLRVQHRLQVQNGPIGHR

T10: LIN7B, Q9HAP6
T10 sequence (Q9HAP6 88-185, limits assumed, looked up): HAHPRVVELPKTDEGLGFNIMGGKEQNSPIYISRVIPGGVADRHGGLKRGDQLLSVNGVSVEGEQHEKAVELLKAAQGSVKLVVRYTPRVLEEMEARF

T11: ARHGAP21, Q5T5U3
T11 sequence (Q5T5U3 45-169, limits assumed, looked up): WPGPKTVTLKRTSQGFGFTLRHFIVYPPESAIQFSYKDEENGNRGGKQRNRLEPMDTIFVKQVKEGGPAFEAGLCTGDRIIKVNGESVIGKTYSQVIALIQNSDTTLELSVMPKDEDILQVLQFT

T12: SIPA1L2, Q9P2F8
T12 sequence (Q9P2F8 945-1036, limits assumed, looked up): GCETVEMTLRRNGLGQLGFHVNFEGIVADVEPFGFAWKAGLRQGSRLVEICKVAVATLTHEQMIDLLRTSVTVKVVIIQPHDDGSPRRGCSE

T13: PTPN13_1, Q12923
T13 sequence (Q12923 1088-1188, limits assumed, looked up): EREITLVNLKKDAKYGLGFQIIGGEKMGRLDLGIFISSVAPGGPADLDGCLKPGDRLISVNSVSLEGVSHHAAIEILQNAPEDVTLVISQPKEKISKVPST


What was measured:
Assay in all cases: holdup assay
Set-up in all cases: key: below the threshold = too weak to quantify, mostly under pKd 3.1 to 4
Conditions in all cases: plain residues with an end cap or a label only (N-terminal biotin on a linker: ado-ado)
[1] = biological target: PDLIM1, O00151
Sequence of PDLIM1, O00151 (O00151 1-87): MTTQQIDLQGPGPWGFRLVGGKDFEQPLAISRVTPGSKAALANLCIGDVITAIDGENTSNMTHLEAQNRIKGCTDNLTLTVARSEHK

[2] = biological target: GRIP2_3, Q9C0E4
Sequence of GRIP2_3, Q9C0E4 (Q9C0E4 238-339): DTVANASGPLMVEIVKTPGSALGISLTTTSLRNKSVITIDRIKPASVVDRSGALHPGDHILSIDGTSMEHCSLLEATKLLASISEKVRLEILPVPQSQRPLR

[3] = biological target: MAGI3_2, Q5TCQ9
Sequence of MAGI3_2, Q5TCQ9 (Q5TCQ9 398-503): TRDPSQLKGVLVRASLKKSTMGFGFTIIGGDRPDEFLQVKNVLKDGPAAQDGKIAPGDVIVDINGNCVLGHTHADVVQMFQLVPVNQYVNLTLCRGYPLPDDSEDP

[4] = biological target: T1, FRMPD1, Q5SYB0
[5] = biological target: T2, APBA1_2, Q02410
[6] = biological target: T3, APBA3_1, O96018
[7] = biological target: T4, PDZD7_3, Q9H5P4
[8] = biological target: T5, APBA2_2, Q99767
[9] = biological target: GRASP, Q7Z6J2
Sequence of GRASP, Q7Z6J2 (Q7Z6J2 96-193): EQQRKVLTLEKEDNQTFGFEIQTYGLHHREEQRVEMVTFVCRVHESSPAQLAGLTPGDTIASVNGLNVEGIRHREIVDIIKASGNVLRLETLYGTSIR

[10] = biological target: T6, HTRA4, P83105
[11] = biological target: T7, MPDZ_10, O75970
[12] = biological target: MAGI2_4, Q86UL8
Sequence of MAGI2_4, Q86UL8 (Q86UL8 772-865): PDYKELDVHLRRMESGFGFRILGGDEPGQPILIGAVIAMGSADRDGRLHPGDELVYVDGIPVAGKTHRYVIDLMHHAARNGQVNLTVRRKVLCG

[13] = biological target: SNX27, Q96L92
[14] = biological target: GRIP2_7, Q9C0E4
Sequence of GRIP2_7, Q9C0E4 (Q9C0E4 934-1023): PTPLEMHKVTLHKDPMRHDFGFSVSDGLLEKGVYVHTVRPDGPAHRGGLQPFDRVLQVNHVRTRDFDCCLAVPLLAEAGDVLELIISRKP

[15] = biological target: T8, NHERF3_4, Q5T2W1
[16] = biological target: T9, SYNJ2BP, P57105
[17] = biological target: GIPC2, Q8TF65
Sequence of GIPC2, Q8TF65 (Q8TF65 112-203): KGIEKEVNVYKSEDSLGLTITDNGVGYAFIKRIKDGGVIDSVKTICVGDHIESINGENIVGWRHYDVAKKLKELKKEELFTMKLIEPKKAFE

[18] = biological target: TJP2_1, Q9UDY2
Sequence of TJP2_1, Q9UDY2 (Q9UDY2 24-128): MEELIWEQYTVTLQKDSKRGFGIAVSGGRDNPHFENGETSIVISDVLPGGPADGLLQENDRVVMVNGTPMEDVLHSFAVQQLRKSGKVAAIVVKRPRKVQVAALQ

[19] = biological target: Inadl_2, Q8NI35
Sequence of Inadl_2, Q8NI35 (Q8NI35 238-335): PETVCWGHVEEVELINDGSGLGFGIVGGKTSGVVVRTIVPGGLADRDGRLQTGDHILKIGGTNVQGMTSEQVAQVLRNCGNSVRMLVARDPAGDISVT

[20] = biological target: T10, LIN7B, Q9HAP6
[21] = biological target: T11, ARHGAP21, Q5T5U3
[22] = biological target: T12, SIPA1L2, Q9P2F8
[23] = biological target: T13, PTPN13_1, Q12923
[24] = biological target: MAST2, Q6P0Q8
Sequence of MAST2, Q6P0Q8 (Q6P0Q8 1099-1202): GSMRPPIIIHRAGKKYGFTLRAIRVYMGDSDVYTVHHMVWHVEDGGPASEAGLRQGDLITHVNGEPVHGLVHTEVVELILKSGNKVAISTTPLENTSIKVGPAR

[25] = biological target: DLG1_1, Q12959

Binder	pKd [1]	pKd [2]	pKd [3]	pKd [4]	pKd [5]	pKd [6]	pKd [7]	pKd [8]	pKd [9]	pKd [10]	pKd [11]	pKd [12]	pKd [13]	pKd [14]	pKd [15]	pKd [16]	pKd [17]	pKd [18]	pKd [19]	pKd [20]	other results
GTMFLRETSL [GUCY1A2, P33402]	3.78	below the threshold	4.46	below the threshold	3.61	below the threshold	4.97	below the threshold	4.73	3.85	3.67	below the threshold	5.72	3.84	4.38	5.41	4	below the threshold	below the threshold	4.74	pKd [21]: 4.7; pKd [22]: below the threshold; pKd [23]: below the threshold; pKd [24]: 5.68; pKd [25]: 4.23
PLATCDETSI [SEMA4F, O95754]	below the threshold	below the threshold	below the threshold	below the threshold	below the threshold	below the threshold	4.43	below the threshold	below the threshold	below the threshold	below the threshold	below the threshold	5.26	below the threshold	below the threshold	4.62	3.52	below the threshold	below the threshold	3.78	pKd [21]: below the threshold; pKd [22]: below the threshold; pKd [23]: below the threshold; pKd [24]: 5.42; pKd [25]: 3.59
NSTHNLKDYV [CLDN20, P56880]	below the threshold	below the threshold	below the threshold	below the threshold	3.69	below the threshold	below the threshold	below the threshold	3.47	below the threshold	below the threshold	below the threshold	below the threshold	below the threshold	below the threshold	below the threshold	below the threshold	3.8	below the threshold	below the threshold	pKd [21]: 3.89; pKd [22]: below the threshold; pKd [23]: below the threshold; pKd [24]: below the threshold; pKd [25]: below the threshold
GQNMTVSVVI [PRLHR, P49683]	below the threshold	below the threshold	below the threshold	below the threshold	3.87	below the threshold	4.4	below the threshold	below the threshold	4.15	below the threshold	below the threshold	4.34	below the threshold	3.73	3.47	below the threshold	below the threshold	below the threshold	3.79	pKd [21]: below the threshold; pKd [22]: 3.54; pKd [23]: below the threshold; pKd [24]: below the threshold; pKd [25]: below the threshold

Further lines, with some results ahead:

pKd [1]	pKd [2]	pKd [3]	pKd [4]	pKd [5]	pKd [6]	pKd [7]	pKd [8]	pKd [9]	pKd [10]	pKd [11]	pKd [12]	pKd [13]	pKd [14]	pKd [15]	pKd [16]	pKd [17]	pKd [18]	pKd [19]	pKd [20]	Binder	other results
below the threshold	below the threshold	below the threshold	below the threshold	below the threshold	below the threshold	3.99	below the threshold	4.72	below the threshold	below the threshold	below the threshold	below the threshold	below the threshold	below the threshold	below the threshold	below the threshold	below the threshold	below the threshold	below the threshold	FVFESRKEIL [TBPL1, P62380]	pKd [21]: 3.83; pKd [22]: below the threshold; pKd [23]: below the threshold; pKd [24]: 4.95; pKd [25]: below the threshold
below the threshold	below the threshold	3.49	below the threshold	3.67	below the threshold	4.75	3.52	4.42	3.99	below the threshold	below the threshold	3.94	below the threshold	4.77	below the threshold	below the threshold	3.85	below the threshold	below the threshold	IKLETKKTKL [SLC15A2, Q16348]	pKd [21]: 3.98; pKd [22]: 3.62; pKd [23]: 3.56; pKd [24]: 5.56; pKd [25]: below the threshold
